# Article PMC1557820 (Nucleic Acids Research, 2006)
# T1: N-terminal domain of S. cerevisiae methionyl-tRNA synthetase (residues 1-160) (S. cerevisiae, UniProt P00958 1-160)
# T1 sequence (looked up): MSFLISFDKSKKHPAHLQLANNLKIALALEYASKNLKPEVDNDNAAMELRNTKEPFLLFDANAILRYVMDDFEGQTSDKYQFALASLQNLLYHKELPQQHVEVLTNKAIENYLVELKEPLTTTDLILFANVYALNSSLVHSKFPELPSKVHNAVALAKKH
# B1: N-terminal domain of S. cerevisiae Arc1p (residues 1-122) (domain or fragment, UniProt P46672 1-122, looked up)
# chain: MSDLVTKFESLIISKYPVSFTKEQSAQAAQWESVLKSGQIQPHLDQLNLVLRDNTFIVSTLYPTSTDVHVFEVALPLIKDLVASSKDVKSTYTTYRHILRWIDYMQNLLEVSSTDKLEINHD
# Target: T1, N-terminal domain of S. cerevisiae …
# Test: SEC
binder,measurement,value
B1,stoichiometry N,1
